Paper PMC4749553 (2015)

Molecular target: T1, His6-Tim44(43–263) (Saccharomyces cerevisiae (strain ATCC …, UniProt Q01852))
T1 chain: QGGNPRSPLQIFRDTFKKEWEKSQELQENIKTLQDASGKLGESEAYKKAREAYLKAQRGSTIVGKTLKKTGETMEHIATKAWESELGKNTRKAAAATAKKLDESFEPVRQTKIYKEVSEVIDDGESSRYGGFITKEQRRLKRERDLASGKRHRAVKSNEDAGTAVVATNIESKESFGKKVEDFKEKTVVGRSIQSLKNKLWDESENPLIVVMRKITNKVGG
Experiment: Ni-NTA pull-down, Coomassie-stained SDS-PAGE

binding result: no binding
B1: Tim44(211–431) (protein)
chain: NIESKESFGKKVEDFKEKTVVGRSIQSLKNKLWDESENPLIVVMRKITNKVGGFFAETESSRVYSQFKLMDPTFSNESFTRHLREYIVPEILEAYVKGDVKVLKKWFSEAPFNVYAAQQKIFKEQDVYADGRILDIRGVEIVSAKLLAPQDIPVLVVGCRAQEINLYRKKKTGEIAAGDEANILMSSYAMVFTRDPEQIDDDETEGWKILEFVRGGSRQFT
